Results from patent US20220112288A1 (published 2022).
Residue numbers refer to the chain shown, from its start.

B1: 75110_04D20A (antibody, V domains shown)
VH: QVQLQESGPGLVKPSETLSLTCTVSNGSISDYYWSWIRQPAGKGLEWIGRIYTSGSTNYNPSLKSRITMSVDTSKNQFSLELSSVTAADTAVYYCARELERYYFYGVDVWGQGTTVTVSS
VL: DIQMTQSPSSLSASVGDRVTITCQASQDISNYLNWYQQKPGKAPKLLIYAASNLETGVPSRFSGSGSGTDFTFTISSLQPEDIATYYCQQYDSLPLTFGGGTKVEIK
notes: Tested as clonal hybridoma supernatant of an AlivaMab Mouse Kappa antibody (human variable regions, kappa; detected with anti-mouse Fc)
B2: 75110_04F22A (antibody, V domains shown)
VH: EVQLVESGGGLVQPGGSLRLSCAASGFTFSSYDIHWVRQATGKGLEWVSTIGTAGDTYYPGSVKGRFTISRENAKNSLYLQMNSLRAGDTAVYYCARGGYYYYGMDVWGQGTTVTVSS
VL: EIVLTQSPGTLSLSPGERATLSCRASQSVYSSYLAWYQQKPGQAPRLLIYGASSRATGIPDRFSGSGSGTDFTLTISRLEPEDFAVYYCQQFGTSPFTFGPGTKVDIK
notes: as for B1
B3: 75110_04P06A (antibody, V domains shown)
VH: B2 VH with S31N, I34M, Y100D
VL: B2 VL with G9D, V29L, Y30S, S32V, S77N, A85V, F92Y, T94S
notes: as for B1
B4: 75110_05F19A (antibody, V domains shown)
VH: B2 VH with S31N, I34V, A40P, Y101D, M105L
VL: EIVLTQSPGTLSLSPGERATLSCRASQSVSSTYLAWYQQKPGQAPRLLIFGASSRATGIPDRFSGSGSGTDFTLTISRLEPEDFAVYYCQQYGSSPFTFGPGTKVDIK
notes: as for B1
B5: 75110_05K11A (antibody, V domains shown)
VH: B2 VH with I34M, A40P, G61A, Y100F
VL: B2 VL with A19V, Y30S, S31N, S32T, A85V, F92H, T94S
notes: as for B1
B6: 75110_04G02A (antibody, V domains shown)
VH: not shown
VL: DIVMTQSPDSLAVSLGERATINCKSSQSVLYSSNNKNYLAWYQQKPGQPPKLLFYWASARESGVPDRFSGSGSGTDFTLTISSLQAEDVALYYCQQYFGSFPTFGQGTKLEIK
notes: as for B1
B7: 75110_04G16A (antibody, V domains shown)
VH: QVQLQESGPGLVKPSQTLSLTCTVSGDSISSGYYYWSWIRQHPGKGLEWIGYISYSGSTYYNPSLKSRLTISVNTSKNQFSLKLSSLTAADTAVYYCARDRPSNFDAFDIWGQGTMVTVSS
VL: B2 VL with Y30G, S32T, S53F, F92Y, T94S, F97L
notes: as for B1
B8: 75110_04H17A (antibody, V domains shown)
VH: QVQLQESGPGLVKPSETLSLTCTVSGGSISTYYWSWIRQSAGKGLEWIGRIYTSERPNYNPSLKSRVTMSVDTSKNQFSLKLNSVSAADTAVYYCARELERPYYYGMDVWGQGTTVTVSS
VL: DVQMTQSPSSLSASVGGRVTITCQASQDISNYLNWYQQKPGKAPKLLIYYASNLETGVPSRFSGSGSGTDFTFTISSLQPEDFATYYCQQYDNLPLTFGGGTKVEIK
notes: as for B1
B9: 75110_04K10A (antibody, V domains shown)
VH: EVQLVESGGGLVQPGGSLRLSCAASGFTFSSYWMSWVRQAPGKGLEWVANINQDGSEKYYVDSVKGRFTISRDNAKNSLYLQLNSLRAEDTAMYYCAREGGQWLSLDYWGQGTLVTVSS
VL: DIQMTQSPSSVSASVGDRVTITCRASQGISSWLAWYQQKPGKAPKVLIYGVSSFQSGVPSRFSGSGSGTDFILTISSLQPEDFATYYCQQANSFPWTFGQGTKVEIK
notes: as for B1
B10: 75110_04P08A (antibody, V domains shown)
VH: QVQLQQWGAGLLKPSETLSLTCAVYGGSLSGYYWSWIRQSPGKGLEWIGEINQSGSTNYNPSLKSRVTISVDTSKDQFSLRLTSVTAADTAVYYCTRVLNWFDPWGRGTLVTVSS
VL: DIQMTQSPSSVSASVGDRVTLTCRASQDISNWLAWYQQKPGKAPKLLIYAASSLQSGVPSRFSGSGSGTDFTLTISSLQTEDFATYYCQQANSFPYTFGQGTKLEIK
notes: as for B1
B11: 75110_05A11A (antibody, V domains shown)
VH: EVQLVESGGGLVKPGGSLTLSCAASGFTFSNTWMSWVRQAPGKGLEWVGRIKSKIDGGTTDYAAPVKGRFTISRDDSKNTLYLQMNSLKTEDTAVYYCTTSGTYSSGWGLFDYWGQGTLVTVSS
VL: B8 VL with V2I, G17D, Y50D, A51T, T56A, D70H, F73L, F83I, L96F, K103R
notes: as for B1
B12: 75110_05B13A (antibody, V domains shown)
VH: QVLLEQWGAGLLKPSETLSLTCAVYGGSFSGYYWTWIRQPPGKGLEWIGEINHRGSTNYNPSLKSRVTISIDTSKNQFSLKVKSVTAADTAMYYCTRPDSNWFDPWGQGTLVTVSS
VL: B10 VL with L21I, Y49F, T80P, Y96L, Q100G, L104V
notes: as for B1
B13: 75110_05E05A (antibody, V domains shown)
VH: QVQLQESGPGLVKPSETLSLTCTVSGGSIGSYYWSWIRQPAGKGLEWIGRIYTSGSTNYNPSLKSRVTMSFDTSKNQFSLKLNSVTAADTAVYYCATDGGVGDSLDYWGQGTLVTVSS
VL: DIVMTQTPLSLPVTPGEPASISCRSSQSLLDSDDGNTYLDWYLQKPGQSPQLLIYTLSYRASGVPDRFSGSGSGTDFTLKISRVEAEDVGVYYCMQHIEFPFTFGPGTKVDIK
notes: as for B1
B14: 75110_05E13A (antibody, V domains shown)
VH: EVQLVESGGDLVKPGGSLRLSCAASGFSFSNAWMSWVRQAPGKGLEWVGRVESKTDGGTTDYAAPVKDRFTISRDDSKYTLYLQMNSLKTEDSAVYYCTIGGGFGLELYGFFDYWGQGTLVTVSS
VL: DIQMTQSPSTLSASVGDRVTITCRASQSISSWLAWYQQKPGKAPMLLIYKASSLESGVPSRFSGSGSGTEFTLTISSLQPDDFATYYCLQYNSYYTFGQGTKLEIK
notes: as for B1
B15: 75110_05G15A (antibody, V domains shown)
VH: QVQLQESGPGLVKPSQTLSLTCTVSGGSISSGGYFWSWIRQHPGKGLEWIGCIYYSGSTYYIPSLKSRVTISVDTSKNQFSLKLRSVTAADTAVYYCARDGYDYWYFDLWGRGTLVTVSS
VL: not shown
B16: 75110_05L07A (antibody, V domains shown)
VH: B9 VH with E57D, A75V, L83I, M93V, S105T
VL: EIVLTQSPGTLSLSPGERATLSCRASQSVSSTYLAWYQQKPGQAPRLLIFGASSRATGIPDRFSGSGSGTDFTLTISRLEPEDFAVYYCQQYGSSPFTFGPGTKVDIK
notes: as for B1
B17: 75110_06C16A (antibody, V domains shown)
VH: QVQLQESGPGLVTPSETLSLSCTVSGGSISDYYWSWIRQPGGKGLEWIGRIYSSGSTNYNPSLKSRVTMSVDTSKNQFSLKLSSVTAADTAVYFCARDREDYYYYGMDVWGQGTTVTVSS
VL: B8 VL with V2I, G17D, Q27H, Y50A, T72S, F83I, N93H
notes: as for B1
B18: 75110_06D16A (antibody, V domains shown)
VH: B10 VH with L29F, S40P, Q53H, D72V, D76N, R81K, T83S, T96A, R107Q
VL: B10 VL with L21I, S30A, N31D, L54F, T80P, Y87F
notes: as for B1

Biological target: T1, human CD4 on human PBMCs (human, UniProt P01730 26-458)
T1 construct: whole, on cells; the CD4-positive gate was set with the control antibodies OKT4 and RPA-T4; also called hCD4
Assay: FACS, clonal hybridoma supernatant on PBMCs

| Binder | % CD4 Stain [%] | gMFI of CD4+ [gMFI] |
| --- | --- | --- |
| B1 | 33.2 | 241000 |
| B2 | 37.7 | 216000 |
| B3 | 36.9 | 241000 |
| B4 | 37.1 | 155000 |
| B5 | 38.1 | 112000 |
| B6 | 38.5 | 187000 |
| B7 | 36.3 | 240000 |
| B8 | 28.8 | 151000 |
| B9 | 35.6 | 149000 |
| B10 | 36.4 | 128000 |
| B11 | 35.9 | 246000 |
| B12 | 55.8 | 135000 |
| B13 | 31.8 | 64000 |
| B14 | 38.9 | 257000 |
| B15 | 31.6 | 326000 |
| B16 | 37.9 | 156000 |
| B17 | 33.1 | 270000 |
| B18 | 39.2 | 253000 |
